Reference: the supplement of paper PMC12042874
± gives the uncertainty stated by the source.

Test: amyloid nucleation score (Sup35N fusion, yeast selection) (log enrichment); library NNK3; higher = more nucleation; inactive = no reads after selection
Outline: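 Peptides of 20 random codons, each fused to Sup35N, were expressed in psi-negative yeast. Cells were induced with 100 μM copper sulfate for 24 hours and grown 7 days at 30°C on medium lacking adenine and uracil, and plasmid inserts before and after selection were Illumina-sequenced. Nucleation scores are DiMSum log enrichments of output over input reads, centred on the mode score of non-aggregating sequences, and sequences under 100 input reads were excluded.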
In the case of GGNGKAWHVGTVIMCRKLRV, the amyloid nucleation score is reported as 2.5 ± 0.078.
In the case of LLCND, the amyloid nucleation score is reported as “inactive”.
In the case of CFCDVMQFWM, the amyloid nucleation score is reported as 2.4 ± 0.067.
In the case of RFAVTSVMLTSETRDGFDHA, the amyloid nucleation score is reported as “inactive”.
For WWSKRLKRLVNCGLR, the amyloid nucleation score was “inactive”.
For SYLPEFRCVVRFKFFQDKLL, the amyloid nucleation score was “inactive”.
In the case of LYAFICTTYTCVVN, the amyloid nucleation score is reported as “inactive”.
With MITLDCLNNNI the amyloid nucleation score was “inactive”.
For LNMCLSLVSVLRAVSVYLWT, the amyloid nucleation score was “inactive”.
With LCYAWRSGSNTYMHMMNWSM the amyloid nucleation score was “inactive”.
With ILRFFIT the amyloid nucleation score was “inactive”.
Substance FVILFVVFNYINALCDCNID has an amyloid nucleation score of 0.377 ± 0.27.
In the case of GVLVTANLYFWMEPSALPAM, the amyloid nucleation score is reported as “inactive”.
In the case of RQCMKRLWDSCYKKAWIKYV, the amyloid nucleation score is reported as “inactive”.
For SFTYTRQSGSNLEAVGTFPH, the amyloid nucleation score was -0.373 ± 0.69.
With LTDSY the amyloid nucleation score was “inactive”.
GHVSHYVVVLHLTSIGSCGL gave an amyloid nucleation score of 0.696 ± 0.23.
For NLKILPAVDHCSDHPMERNE, the amyloid nucleation score was “inactive”.
With PSYFEYFVRIGFFG the amyloid nucleation score was “inactive”.
In the case of DYVCYLILVLEASRRNCRSS, the amyloid nucleation score is reported as “inactive”.
In the case of FDLSLDSMKFEAFYFVVRLV, the amyloid nucleation score is reported as “inactive”.
With QTRELRSQLLMPFSITDVRS the amyloid nucleation score was “inactive”.
For GRKKVVTWQLLARQP, the amyloid nucleation score was “inactive”.
In the case of RCLAPGCRIVNRFLSINYKS, the amyloid nucleation score is reported as “inactive”.
For ARFMC, the amyloid nucleation score was “inactive”.
With WIPHPEFGVSIGIV the amyloid nucleation score was “inactive”.
In the case of ALSMLTG, the amyloid nucleation score is reported as “inactive”.
For TISFGMMHLAIDWVIVN, the amyloid nucleation score was “inactive”.
SNRYVCLAYYFSE showed an amyloid nucleation score of 0.154 ± 0.49.
With VSDRVSLSVGG the amyloid nucleation score was “inactive”.
In the case of FTVCFVLPIAITPMMWDIWY, the amyloid nucleation score is reported as “inactive”.
With VIRRYCAGARHYSVLEIMRE the amyloid nucleation score was “inactive”.
In the case of FYCIVFQYGSLDLARH, the amyloid nucleation score is reported as 2.69 ± 0.064.
In the case of GSICLRQGPSVMVLRMWLCD, the amyloid nucleation score is reported as “inactive”.
In the case of CRSGCAVYS, the amyloid nucleation score is reported as “inactive”.
For EFQGQTKSSWAYRLDKLCLP, the amyloid nucleation score was “inactive”.
In the case of IITPELYGKLRLHH, the amyloid nucleation score is reported as “inactive”.
For WCAWAVTCLTGVISRPLHES, the amyloid nucleation score was 0.042 ± 0.43.
For LCKSMRNDSLDYFLHCPGML, the amyloid nucleation score was “inactive”.
SLETMFMEKKRTSPNMVMLW gave an amyloid nucleation score of -0.42 ± 0.73.
DSLSGYSVPYWSSFMNPWTN showed an amyloid nucleation score of 0.677 ± 0.24.
With LLLNMM the amyloid nucleation score was “inactive”.
For WNSLMAK, the amyloid nucleation score was “inactive”.
In the case of YWVTLFRSARVWMITLNLFD, the amyloid nucleation score is reported as “inactive”.
With MWLSTVDRHHINSQALENVD the amyloid nucleation score was “inactive”.
For TWWSEGIYELKYGLFWLGVV, the amyloid nucleation score was “inactive”.
For QYCVIMWPCIYFRVTFSF, the amyloid nucleation score was “inactive”.
With IAVQLEILAY the amyloid nucleation score was “inactive”.
In the case of VHVSEGPRWRFHSRRDSSVV, the amyloid nucleation score is reported as “inactive”.
In the case of MCGLVTFWRALRGNRGRY, the amyloid nucleation score is reported as “inactive”.
With TNVSPLTPNT the amyloid nucleation score was “inactive”.
With KGFSFLRIRRMGLWTVSGYG the amyloid nucleation score was “inactive”.
With VYCLAECYRIMRYAPFQVV the amyloid nucleation score was “inactive”.
With CKTMFYY the amyloid nucleation score was “inactive”.
In the case of DDIRCMFRTADFRAKMSVNS, the amyloid nucleation score is reported as “inactive”.
For IFDLWLRLYSLANYNGSFVT, the amyloid nucleation score was “inactive”.
In the case of VHHEILHHGLFGEMSCVVEC, the amyloid nucleation score is reported as “inactive”.
In the case of LEGSKKSDSSLARSWYFFET, the amyloid nucleation score is reported as “inactive”.
With YFFSVLG the amyloid nucleation score was “inactive”.
With RHGVTMRLSCQTWHFAFHLR the amyloid nucleation score was “inactive”.
For EAHGYVR, the amyloid nucleation score was “inactive”.
For SRSVDLLSLSRYIYLESRYD, the amyloid nucleation score was “inactive”.
In the case of SFSCVHDDCRKLLQLRLDST, the amyloid nucleation score is reported as “inactive”.
For IDVSCMQNNILRRIGFHV, the amyloid nucleation score was “inactive”.
For ERVLRVNHYWICSFPFNPGV, the amyloid nucleation score was “inactive”.
For VTKARSHYTVSVLMDEKCMG, the amyloid nucleation score was “inactive”.
In the case of LKADRVVSFFWLCSFIFTSI, the amyloid nucleation score is reported as “inactive”.
For GGKVSERRYVDLCRLPSVAP, the amyloid nucleation score was “inactive”.
With KDMMWDVSRPYFYLVTYQIG the amyloid nucleation score was “inactive”.
For TCCYRYYLLILAVSGVFIDT, the amyloid nucleation score was “inactive”.
With FMYMVNMVNVTVN the amyloid nucleation score was “inactive”.
In the case of DILFDGESLFPYTENSWETR, the amyloid nucleation score is reported as “inactive”.
For LFRHLVNRLNLTSTAKYHGF, the amyloid nucleation score was “inactive”.
For VNYLYPS, the amyloid nucleation score was “inactive”.
In the case of YGGFLKFSRYGIGRYIHLQL, the amyloid nucleation score is reported as “inactive”.
In the case of LGVRCYNFIRFKYLSCLRLP, the amyloid nucleation score is reported as “inactive”.
In the case of KLYESYASIRNNGCLRCSNS, the amyloid nucleation score is reported as “inactive”.
For LSGLFARRNQWWKYGLRRN, the amyloid nucleation score was “inactive”.
In the case of VNCATWNLNFTRMFMACIGL, the amyloid nucleation score is reported as 1.28 ± 0.12.
In the case of ILVIYCRVMKCFKCTRMRLC, the amyloid nucleation score is reported as “inactive”.
With ILAHPCSYRFGSWGRLINRN the amyloid nucleation score was “inactive”.
With YGCRINLIDRYALKYCVTED the amyloid nucleation score was “inactive”.
In the case of HRMRLSCCTAFDTLVMIPIS, the amyloid nucleation score is reported as 0.482 ± 0.17.
With RCWLKRAWVWSQKVSDRSTW the amyloid nucleation score was “inactive”.
In the case of IIHGHHWFGYNSRLCC, the amyloid nucleation score is reported as “inactive”.
With HSRTMVLMCIAMIRVLGYGF the amyloid nucleation score was “inactive”.
With FLLTYVNIRGMQP the amyloid nucleation score was 1.49 ± 0.099.
With IGGEYGFLSCYSIGVTTFYV the amyloid nucleation score was “inactive”.
For CYSGCEWSTYMLMGVLKVVS, the amyloid nucleation score was “inactive”.
With GRLNVLRRRPVGRTKRCSKV the amyloid nucleation score was “inactive”.
With FSIDTNGSCYRIDARHVK the amyloid nucleation score was “inactive”.
In the case of GRYLSANLVVKSGCR, the amyloid nucleation score is reported as “inactive”.
With FSCPRVSIFGLCSNCMYQWW the amyloid nucleation score was 2.43 ± 0.057.
Substance RFEFDQVFMF has an amyloid nucleation score of 1.32 ± 0.13.
In the case of CSVVWIMV, the amyloid nucleation score is reported as -0.852 ± 0.8.
In the case of DDVTHISLKKNSDNLGYNSR, the amyloid nucleation score is reported as “inactive”.
MRSYFEDFCGFQAIRS showed an amyloid nucleation score of 1.07 ± 0.14.
With GGSCLSNPVGKYGILWWMLS the amyloid nucleation score was “inactive”.
With CELANFKCLLGSQMFSEPLG the amyloid nucleation score was “inactive”.
For IRSRTVTWQQWQLHSRNGRS, the amyloid nucleation score was 0.086 ± 0.56.
For VGHIRVLDEDNNYMSFYDMR, the amyloid nucleation score was “inactive”.
For IENRFVSFLYL, the amyloid nucleation score was 1.88 ± 0.075.
For VRRCNTCLQ, the amyloid nucleation score was “inactive”.
In the case of VMQYLLMAEKNQLRLQRFAR, the amyloid nucleation score is reported as “inactive”.
With NRFLNIQKRSTPLNLPSSSV the amyloid nucleation score was “inactive”.
For IVYMAATKLMVVNSLCNGRG, the amyloid nucleation score was 2.04 ± 0.09.
For KSQYTSASP, the amyloid nucleation score was “inactive”.
In the case of HGSYSDGVEVNEFRLGTRVG, the amyloid nucleation score is reported as “inactive”.
With SLRVLWCIRLKCSCLCWISG the amyloid nucleation score was “inactive”.
For SGGGIPGTLGSGDPSSPNTQ, the amyloid nucleation score was “inactive”.
With TLYVIGLPFDLALMGI the amyloid nucleation score was “inactive”.
In the case of INIWSMYYMILLLFFIIYRL, the amyloid nucleation score is reported as 0.55 ± 0.24.
In the case of YNVTFQSPVTSWDNHLIMA, the amyloid nucleation score is reported as “inactive”.
With YWLRVIKRHRDRHR the amyloid nucleation score was “inactive”.
With MPSLRRS the amyloid nucleation score was “inactive”.
With SVLFLTRIEEVGVRYMFKDC the amyloid nucleation score was “inactive”.
For AVASSRYNLEYLSRSLCVMS, the amyloid nucleation score was “inactive”.
In the case of CAKLLYGCDTSFREWMVGAE, the amyloid nucleation score is reported as “inactive”.
RLVAVVRCYVLCGKIWGKST showed an amyloid nucleation score of -0.484 ± 0.89.
In the case of TLIQFSLMCVYFSDFLPKAF, the amyloid nucleation score is reported as “inactive”.
In the case of KKGGLLLLNKYN, the amyloid nucleation score is reported as “inactive”.
In the case of RMGIYCGDRFQ, the amyloid nucleation score is reported as “inactive”.
With TYFILKETATDLN the amyloid nucleation score was “inactive”.
WVNFRSPFLNGANA gave an amyloid nucleation score of -0.686 ± 0.68.
With RFLFSCCVGL the amyloid nucleation score was 2.3 ± 0.06.
In the case of HGVWSCRWWLNNRMF, the amyloid nucleation score is reported as “inactive”.
In the case of LRGARCYKSNRVIGVLCGSV, the amyloid nucleation score is reported as “inactive”.
With VFDGWGLFRLSTICMCLQRH the amyloid nucleation score was “inactive”.
In the case of SLMLLRRTAVRPHWWKLRPN, the amyloid nucleation score is reported as “inactive”.
In the case of LLLSEREGIYVVWVWCRWPV, the amyloid nucleation score is reported as “inactive”.
For HVYLAQGL, the amyloid nucleation score was “inactive”.
In the case of AGGCFISARSIRNCAHMLSR, the amyloid nucleation score is reported as “inactive”.
With SKNDIQARGSRKKCSNKGAK the amyloid nucleation score was “inactive”.
With LRPNLQSDVPRRYTMCGTHA the amyloid nucleation score was “inactive”.
For CLHLWGVFKFFDVYWIMLMG, the amyloid nucleation score was “inactive”.
In the case of KEAPIWRKKGQNLLLPVSGW, the amyloid nucleation score is reported as “inactive”.
With CEFRIFNWSFCSKRVGLRYV the amyloid nucleation score was “inactive”.
In the case of SYGALLNGYGGKSSAPIRWS, the amyloid nucleation score is reported as “inactive”.
With WKATNNAASVFGDLYGYYAN the amyloid nucleation score was “inactive”.
With TQNGGVNVIRFYLCDFLSGL the amyloid nucleation score was 2.87 ± 0.067.
In the case of KSSMKLLSPP, the amyloid nucleation score is reported as “inactive”.
With WAFSVKKWRTVLRKCILQWG the amyloid nucleation score was “inactive”.
Substance CPIWKDRDCFLLSIKYYALQ has an amyloid nucleation score of -0.24 ± 0.31.
GSCKVADAPCSHARR gave an amyloid nucleation score of -0.331 ± 1.3.
In the case of ILTHTEVCIPSVRTLSGCKG, the amyloid nucleation score is reported as “inactive”.
In the case of ADWRIKFYGCGDLGLFWES, the amyloid nucleation score is reported as “inactive”.
FKLWWIKCCMHPLMMHVAWM showed an amyloid nucleation score of -0.036 ± 0.27.
Substance NCIAWYQW has an amyloid nucleation score of -0.393 ± 0.7.
For NGFCCM, the amyloid nucleation score was “inactive”.
For MILILY, the amyloid nucleation score was “inactive”.
In the case of FILFRYVTNALRKSAWVRLC, the amyloid nucleation score is reported as “inactive”.
With ISHVEYLVLEPSMVYF the amyloid nucleation score was -0.349 ± 0.59.
In the case of IRGKYRLVVRDSLNVTPYRV, the amyloid nucleation score is reported as “inactive”.
GMVNDYVVTVNFPCFWLG gave an amyloid nucleation score of 2.19 ± 0.079.
For WRGYPFAPVFYLI, the amyloid nucleation score was “inactive”.
With IATLEDFMFPLFWYCIYLTN the amyloid nucleation score was “inactive”.
With HFMLNIWKVDNNMLWVLICP the amyloid nucleation score was “inactive”.
